Molecular target: the molecule itself
Assay: SEC; calibrated Superose-12 column, buffer E (20 mM Tris-HCl pH 7.5, 250 mM NaCl, 10% glycerol), flow rate 0.8 ml/min; self-association, size of the oligomer not determined

B1: Sso0001 (Cas4 family protein from Sulfolobus solfataricus) (enzyme, Sulfolobus solfataricus P2, UniProt Q97TX9 1-202, looked up)
chain: MITEFLLKKKLEEHLSHVKEENTIYVTDLVRCPRRVRYESEYKELAISQVYAPSAILGDILHLGLESVLKGNFNAETEVETLREINVGGKVYKIKGRADAIIRNDNGKSIVIEIKTSRSDKGLPLIHHKMQLQIYLWLFSAEKGILVYITPDRIAEYEINEPLDEATIVRLAEDTIMLQNSPRFNWECKYCIFSVICPAKLT
notes: Sso0001, Cas4 family protein of Sulfolobus solfataricus P2; the sso0001 gene was amplified from the genome with primers that begin at the start codon and end after the stop codon; a single subunit is printed as 23 kDa; Carries an iron-sulfur cluster (mean 4.3 iron atoms per protein, consistent with 4Fe:4S); No removal of the tag is described; The size of the oligomer was not determined; also …
B1: binds.

Reference: publication PMC3466216, “The CRISPR Associated Protein Cas4 Is a 5′ to 3′ DNA Exonuclease with an Iron-Sulfur Cluster” (PLoS ONE, 2012)
